{
  "source": "patent US20220411498A1",
  "about": "(JACOBIO PHARMACEUTICALS, published 2022)",
  "binders": {"B1": {"name": "h201H3.1+h201L1.1dmut G2C (antibody, human IgG2, kappa, V domains shown)", "VH": "QVQLVESGGGVVQPGRSLRLSCAASGFTFSDYGMHWVRQAPGKGLEWVAYISSGSSIMYYADTVKGRFTISRDNSKNTLYLQMNSLRAEDTAVYYCARDLYYDHVLDYWGQGTTVTVSS", "VL": "DIQMTQSPSSLSASVGDRVTITCRASQEIRGYLIWLQQKPGKAIKRLIYAASTLESGVPSRFSGSRSGSDYTLTISSLQPEDFATYYCLQYTSYPRTFGQGTKVEIKR", "notes": "Humanized antibody, expressed in 293F cells"}, "B2": {"name": "h201H3.1+h219L1.1 G2C (antibody, human IgG2, kappa, V domains shown)", "VH": "B1 VH", "VL": "B1 VL with I29V, R30S, I34N, T92A", "notes": "as for B1"}, "B3": {"name": "M201 HuH1L1(D-E) G2C (antibody, human IgG2, kappa, V domains shown)", "VH": "B1 VH with Q1E, V11L, R16G, A49S, S75A, T78S, T114L, V115L", "VL": "B1 VL with K42G, S69T, Y71F, Q100G", "notes": "as for B1"}},
  "note": "Substitutions are numbered along the chain they refer to.",
  "data": [
    {"biological_target": "T1, huCD39 on the cell surface (293T/17-huCD39 cells) (human, UniProt P49961 1-510)", "T1 sequence (looked up)": "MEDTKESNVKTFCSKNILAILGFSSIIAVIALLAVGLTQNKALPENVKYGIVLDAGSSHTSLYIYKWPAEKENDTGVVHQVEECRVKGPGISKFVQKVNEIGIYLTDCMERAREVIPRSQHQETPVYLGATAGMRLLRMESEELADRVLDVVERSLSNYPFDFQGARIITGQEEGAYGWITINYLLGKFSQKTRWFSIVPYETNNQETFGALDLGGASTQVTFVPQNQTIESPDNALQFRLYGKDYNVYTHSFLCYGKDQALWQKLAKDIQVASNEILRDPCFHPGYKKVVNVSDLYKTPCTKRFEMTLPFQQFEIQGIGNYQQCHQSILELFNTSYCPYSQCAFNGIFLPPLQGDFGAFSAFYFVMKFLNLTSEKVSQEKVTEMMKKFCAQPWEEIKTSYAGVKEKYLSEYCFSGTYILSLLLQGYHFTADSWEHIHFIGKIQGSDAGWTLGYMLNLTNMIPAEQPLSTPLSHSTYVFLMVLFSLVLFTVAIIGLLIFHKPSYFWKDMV", "test": "cell-based or functional assay", "units": {"Blocking of ATPase activity on cell surface (293T/17-huCD39, CellTiter Glo): EC50": "nM"}, "values": [
      {"binder": "B1", "Blocking of ATPase activity on cell surface (293T/17-huCD39, CellTiter Glo): Bottom": 39600, "Blocking of ATPase activity on cell surface (293T/17-huCD39, CellTiter Glo): EC50": 0.038, "Blocking of ATPase activity on cell surface (293T/17-huCD39, CellTiter Glo): Top": 245000},
      {"binder": "B2", "Blocking of ATPase activity on cell surface (293T/17-huCD39, CellTiter Glo): Bottom": 38800, "Blocking of ATPase activity on cell surface (293T/17-huCD39, CellTiter Glo): EC50": 0.077, "Blocking of ATPase activity on cell surface (293T/17-huCD39, CellTiter Glo): Top": 250000},
      {"binder": "B3", "Blocking of ATPase activity on cell surface (293T/17-huCD39, CellTiter Glo): Bottom": 31300, "Blocking of ATPase activity on cell surface (293T/17-huCD39, CellTiter Glo): EC50": 0.026, "Blocking of ATPase activity on cell surface (293T/17-huCD39, CellTiter Glo): Top": 152000}
    ]},
    {"biological_target": "T1, huCD39 on the cell surface …", "test": "flow cytometry on 293T/17-huCD39 cells", "description": "Flow cytometry assay: recombinant host cell line 293T/17-huCD39 cells expressing huCD39 were used to evaluate the binding ability of the humanized antibody to the natural CD39 protein on the cell surface. The recombinant cells were resuspended in PBS buffer, 2×10⁶ cells were added to a 96-well U-plate, and a certain gradient dilution range of the humanized antibody was incubated for 1h at 4° C. in a refrigerator or on ice. The mixture was centrifuged at 1500 rpm for 3 min at 4° C., and washed three times with PBS buffer. Then, incubated for 30 min at 4° C. in the refrigerator or on ice with diluted Alexa Fluor 488-labeled goat anti-human polyclonal antibody (pAb): Goat anti-Human IgG (H+L) Cross-Adsorbed Secondary Antibody, Alexa Fluor 488 (thermo), and finally the cells were washed three times with PBS as described above and analyzed in MACSQuant flow cytometry. Data plots were generated and affinity data were counted using GraphPad Prism software (FIG. 5). The results are shown in Table 5, and the EC₅₀ values of 293T/17-huCD39 humanized antibody were all at the level of 10⁻⁹M.", "units": {"EC50": "nM"}, "values": [
      {"binder": "B1", "Bottom": -1.33, "EC50": 3.31, "Top": 280},
      {"binder": "B2", "Bottom": 8.18, "EC50": 3.1, "Top": 266},
      {"binder": "B3", "Bottom": -2.15, "EC50": 2.94, "Top": 329}
    ]},
    {"biological_target": "T1, huCD39 on the cell surface …", "test": "cell-based or functional assay", "remark": "another data set of the same source", "units": {"EC50 of reversal of ATP-mediated proliferation inhibition of human CD4+ T cells (CFSE, flow cytometry)": "nM", "EC50 of reversal of ATP-mediated proliferation inhibition of human CD8+ T cells (CFSE, flow cytometry)": "nM"}, "values": [
      {"binder": "B1", "EC50 of reversal of ATP-mediated proliferation inhibition of human CD4+ T cells (CFSE, flow cytometry)": 5.08, "EC50 of reversal of ATP-mediated proliferation inhibition of human CD8+ T cells (CFSE, flow cytometry)": 7.08},
      {"binder": "B2", "EC50 of reversal of ATP-mediated proliferation inhibition of human CD4+ T cells (CFSE, flow cytometry)": 0.646, "EC50 of reversal of ATP-mediated proliferation inhibition of human CD8+ T cells (CFSE, flow cytometry)": 1.35},
      {"binder": "B3", "EC50 of reversal of ATP-mediated proliferation inhibition of human CD4+ T cells (CFSE, flow cytometry)": 25.5, "EC50 of reversal of ATP-mediated proliferation inhibition of human CD8+ T cells (CFSE, flow cytometry)": 60.4}
    ]},
    {"biological_target": "T2, huCD39 recombinant protein (human, UniProt P49961 38-478)", "T2 construct": "the entry is the extracellular domain and ends in a histidine tag; also called soluble huCD39 protein; human CD39 extracellular domain recombinant protein", "T2 sequence": "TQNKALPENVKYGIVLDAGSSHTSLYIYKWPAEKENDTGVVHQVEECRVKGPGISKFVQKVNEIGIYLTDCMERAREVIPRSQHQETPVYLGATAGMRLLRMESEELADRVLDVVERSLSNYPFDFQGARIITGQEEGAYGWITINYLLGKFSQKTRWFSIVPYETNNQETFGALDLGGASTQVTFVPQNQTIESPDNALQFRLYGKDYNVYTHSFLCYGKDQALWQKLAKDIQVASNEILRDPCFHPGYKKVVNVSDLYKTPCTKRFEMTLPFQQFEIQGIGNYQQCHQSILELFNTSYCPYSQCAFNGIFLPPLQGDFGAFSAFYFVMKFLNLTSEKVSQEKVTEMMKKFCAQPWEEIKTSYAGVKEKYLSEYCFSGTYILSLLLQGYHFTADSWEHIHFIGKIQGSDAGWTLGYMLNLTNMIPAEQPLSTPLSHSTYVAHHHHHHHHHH", "test": "indirect ELISA, huCD39 recombinant protein coated at 1 ug/mL", "description": "The next day, washed 5 times with PBS buffer and blocked with 200 μL/well of 2% skim milk powder for 1 h. A certain dose range of CD39 humanized antibody was added, and incubated for 1 h at room temperature. Then, washed 5 times with PBST washing buffer (PBS, 0.05% Tween 20), 100 μL HRP-labeled secondary antibody was added to each well, and incubated for 30 min at room temperature. The plates were washed 5 times again, and TMB (Life Technologies) was added for color development for 5 to 10 min. Finally, 1N HCl was added to terminate the reaction, and the OD value was measured at 450 nm. GraphPad Prism software was used to generate data plots and count the affinity data (FIG. 4). The EC₅₀ values of the binding activity of the three humanized antibodies were all at the level of 10⁻¹⁰ M.", "units": {"Bottom": "OD450", "EC50": "nM", "Top": "OD450"}, "values": [
      {"binder": "B1", "Bottom": 0.109, "EC50": 0.433, "Top": 1.03},
      {"binder": "B2", "Bottom": 0.085, "EC50": 0.709, "Top": 0.991},
      {"binder": "B3", "Bottom": 0.068, "EC50": 0.514, "Top": 1.18}
    ]}
  ]
}
